In patent US6720475, “Nucleic acid sequence encoding FLP recombinase” (Pioneer Hi-Bred International, Inc.) one finds EC50 data, which are given here for 1 molecule.

Substitutions are numbered along the chain they refer to.

In data set [1] the target is T1, FLPy (FLP recombinase from native yeast gene) (Saccharomyces cerevisiae, UniProt P03870 SEQ:1-423).
T1 sequence: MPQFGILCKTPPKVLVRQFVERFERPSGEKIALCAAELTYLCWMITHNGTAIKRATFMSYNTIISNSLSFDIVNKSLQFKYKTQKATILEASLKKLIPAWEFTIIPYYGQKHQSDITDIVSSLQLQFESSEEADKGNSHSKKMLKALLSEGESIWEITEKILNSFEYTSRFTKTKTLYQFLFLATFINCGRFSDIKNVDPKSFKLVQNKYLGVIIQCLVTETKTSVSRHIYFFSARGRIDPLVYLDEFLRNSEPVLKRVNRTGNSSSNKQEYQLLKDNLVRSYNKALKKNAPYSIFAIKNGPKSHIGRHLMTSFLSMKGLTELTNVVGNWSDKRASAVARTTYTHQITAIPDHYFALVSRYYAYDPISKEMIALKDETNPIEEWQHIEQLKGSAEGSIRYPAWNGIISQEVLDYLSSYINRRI
As to the kind of experiment: cell_activity; ED50 for excision between genomic FRT sites in BMS cells, PHP5095 plasmid dose. As to conditions: tags: expressed in maize cells; chain copies: 4. The text has this: (§1) The moFLP gene produces higher levels of site-specific excision in maize cells than FLPy. The FRT-containing BMS transformants produced in Example IIA were transfected with varied doses of FLP-expressing vectors for site specific excision of genomic transgenic sequences using the methods described above for Example II-C. Plasmids expressing FLP, PHP5095 (FLPy), and PHP5096 (moFLP) are described above for Example I-A (see Table I-A-1). The FRT/moFLP-containing PHP5849 is described above for Example I-F (see Table I-F-1). Control plasmids used were PHP3703 (non-FLP negative control; with UBI promoter and intron, wheat germ agglutinin structural gene, and pinII 3' end), PHP3953 (positive control; with UBI promoter and intron, GUS structural gene, and pinII 3' end), and pUC18 (with no plant expression cassette used as carrier DNA to keep the total DNA load constant). Cell culture methods, DNA bombardment methods, and assay methods were those described above for Example I. The experimental design is shown below in Table II-D-1.
(§2) GUS activity indicating FLP-mediated excision of genomic DNA in cells transfected with FLYy or moFLP is shown below in Tables II-D-2 and II-D-3. The $ED50$ for each FLP expression plasmid shown in Table II-D-3 was manually determined from graphing the data.

Data set [2] concerns the target T2, moFLP (FLP recombinase from maize-codon-optimized gene) (Saccharomyces cerevisiae, UniProt P03870 SEQ:1-423).
T2 chain: T1 sequence with G5D
As to the kind of experiment: cell_activity; ED50 for excision between genomic FRT sites in BMS cells, PHP5096 plasmid dose. The conditions noted are these: chain copies: 4.
Source text: as §1, §2

B1: FRT site (FRT-1) (dsDNA)
DNA 1: GAAGTTCCTATTCTCTAGAAAGTATAGGAACTTC
DNA 2: GAAGTTCCTATACTTTCTAGAGAATAGGAACTTC
With B1, the EC50 in data set [1] worked out at 0.13 ug FLP expression vector; in data set [2], 0.03 ug FLP expression vector.
